From patent US20230051701A1 (Bristol-Myers Squibb, published 2023)
“And” between values parts separate entries of the source, which are not always exact repeats. Identical values can stand only once.

Legend:
[1] = biological target: T1, full length extracellular domain of human CD73 linked to a His tag (human, UniProt P21589 27-547, glycosylated); experiment: SEC-MALS, equimolar mix 5.5 uM mAb + 5.5 uM hCD73-his, peak area
T1 construct: 27-553 is 27-547 plus that tag; also called hCD73-his; CD73-his
T1 sequence: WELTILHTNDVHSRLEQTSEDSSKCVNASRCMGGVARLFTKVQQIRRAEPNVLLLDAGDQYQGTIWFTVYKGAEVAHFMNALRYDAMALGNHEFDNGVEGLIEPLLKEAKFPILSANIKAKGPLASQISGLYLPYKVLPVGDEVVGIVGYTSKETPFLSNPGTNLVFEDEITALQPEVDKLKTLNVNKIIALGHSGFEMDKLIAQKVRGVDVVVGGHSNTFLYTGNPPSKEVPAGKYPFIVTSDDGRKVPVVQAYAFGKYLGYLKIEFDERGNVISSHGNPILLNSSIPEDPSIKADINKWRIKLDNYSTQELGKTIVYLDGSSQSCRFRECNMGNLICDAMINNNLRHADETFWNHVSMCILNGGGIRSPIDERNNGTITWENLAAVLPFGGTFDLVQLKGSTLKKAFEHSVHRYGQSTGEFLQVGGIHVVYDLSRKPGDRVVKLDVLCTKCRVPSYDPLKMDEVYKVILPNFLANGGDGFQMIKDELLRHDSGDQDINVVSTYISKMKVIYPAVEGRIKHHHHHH
Method: The oligomeric state of CD73/antibody complexes were examined by size-exclusion chromatography coupled to an in-line multi-angle light scattering detector (SEC-MALS). Isocratic separations were performed on a Shodex PROTEIN KW-803 column connected to an Prominence Shimadzu UFLC in buffer containing 200 mM K2HPO4, 150 mM NaCl, pH 6.8, containing 0.02% Na azide (0.1 μm filtered) running at 0.5 mL/min. Samples were injected onto the column using a SIL-20AC Prominence Shimadzu autosampler, and data were obtained from three online detectors connected in series: a Prominence SPD-20AD diode array UV/vis spectrophotometer followed by a Wyatt miniDAWN™ TREOS Multi-Angle Light Scattering Detector then a Wyatt Optilab T-rEX Refractive Index Detector. Data were collected and analyzed using Astra (Wyatt) and Labsolutions (Shimadzu) software.
CD73.4 antibodies having the heavy chain constant regions set forth in Table 26 were also tested for formation of high molecular weight complexes by SEC-MALS and DLS experiments, as described in Example 11.

[2] = biological target: T2, human CD73 on cells (Calu6, NCI-H292, SK-MEL-24, human tumor cell lines, human B and T cells) (human, UniProt P21589 27-549); experiment: flow cytometry, human tumor cell lines
T2 construct: Endogenous protein; also called endogenous CD73; cellular CD73
T2 sequence: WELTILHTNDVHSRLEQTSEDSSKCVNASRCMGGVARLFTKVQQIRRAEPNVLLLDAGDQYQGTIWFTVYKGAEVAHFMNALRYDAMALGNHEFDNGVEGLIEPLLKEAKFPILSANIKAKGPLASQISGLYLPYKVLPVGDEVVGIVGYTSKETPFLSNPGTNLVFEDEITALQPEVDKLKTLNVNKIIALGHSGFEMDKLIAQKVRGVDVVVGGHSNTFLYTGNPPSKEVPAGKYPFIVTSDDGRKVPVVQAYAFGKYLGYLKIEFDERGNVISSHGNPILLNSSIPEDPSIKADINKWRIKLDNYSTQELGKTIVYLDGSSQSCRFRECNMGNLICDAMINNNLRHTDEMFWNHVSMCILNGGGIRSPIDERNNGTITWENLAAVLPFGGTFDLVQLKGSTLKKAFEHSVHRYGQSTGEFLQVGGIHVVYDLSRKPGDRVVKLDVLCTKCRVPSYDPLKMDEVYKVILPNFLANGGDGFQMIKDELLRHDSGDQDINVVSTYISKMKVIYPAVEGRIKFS
Method: Titration binding curves were produced with CD73 antibodies on Calu6 (CD73 endogenous expressors; human pulmonary adenocarcinoma cell line), DMS114 (CD73 negative; human small cell lung cancer cell line), CHO-cynoCD73 (cynoCD73-transfected) and CHO-K1 (cynoCD73 negative), cells using Alexa Fluor® 647 Goat Anti-Human IgG (H+L) as a secondary antibody, Invitrogen Cat#A-21445, using the following method: 100000 cells were plated in 100 uL PBS+2% FBS per well and blocked for 20 min. Using a U-bottom 96-deep well plate, volumes of antibody and PBS+2% FBS were combined as dictated by Table 12 below.
An 8-point serial dilution was performed by diluting a sixth of the volume (90 uL) into 450 μL PBS+2% FBS. The cell plate was spun down for 5 minutes at 1500 rpm. 100 uL of diluted antibody was added per well of the plate. 100 uL PBS+2% FBS were added to all other wells. […] The plates were spun down at 1500 rpm for 5 min and washed in 200 uL PBS +2% FBS per well. The plates were washed again, resuspended in 200 uL 2% FBS in PBS per well and the samples were run.

rat CD73 = biological target: T3, rat CD73 (rat, UniProt P21588 29-551, limits assumed); experiment: SPR study of Example 3A; format not described
T3 sequence (looked up): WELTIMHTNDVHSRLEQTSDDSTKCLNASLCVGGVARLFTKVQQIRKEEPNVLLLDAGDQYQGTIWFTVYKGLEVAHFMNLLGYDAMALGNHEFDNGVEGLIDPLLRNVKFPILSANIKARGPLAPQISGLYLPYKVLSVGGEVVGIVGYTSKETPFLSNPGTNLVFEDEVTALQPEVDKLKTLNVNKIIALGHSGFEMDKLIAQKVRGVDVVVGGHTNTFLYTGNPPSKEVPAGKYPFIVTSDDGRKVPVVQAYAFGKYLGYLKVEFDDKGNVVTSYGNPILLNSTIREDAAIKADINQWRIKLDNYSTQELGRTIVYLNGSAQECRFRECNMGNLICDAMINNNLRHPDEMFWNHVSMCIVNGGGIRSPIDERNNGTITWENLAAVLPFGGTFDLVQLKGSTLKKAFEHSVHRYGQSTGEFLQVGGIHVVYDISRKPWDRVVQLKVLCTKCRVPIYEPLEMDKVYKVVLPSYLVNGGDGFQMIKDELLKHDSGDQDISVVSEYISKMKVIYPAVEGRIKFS

B1: CD73.4-IgG2-C219S (antibody)
heavy: QVQLVESGGGVVQPGRSLRLSCAASGFTFSNYGMHWVRQAPGKGLEWVAVILYDGSNKYYPDSVKGRFTISRDNSKNTLYLQMNSLRAEDTAVYYCARGGSSWYPDSFDIWGQGTMVTVSSASTKGPSVFPLAPCSRSTSESTAALGCLVKDYFPEPVTVSWNSGALTSGVHTFPAVLQSSGLYSLSSVVTVPSSNFGTQTYTCNVDHKPSNTKVDKTVERKSCVECPPCPAPPVAGPSVFLFPPKPKDTLMISRTPEVTCVVVDVSHEDPEVQFNWYVDGVEVHNAKTKPREEQFNSTFRVVSVLTVVHQDWLNGKEYKCKVSNKGLPAPIEKTISKTKGQPREPQVYTLPPSREEMTKNQVSLTCLVKGFYPSDIAVEWESNGQPENNYKTTPPMLDSDGSFFLYSKLTVDKSRWQQGNVFSCSVMHEALHNHYTQKSLSLSPG
light: not shown
notes: also called CD73.4-IgG2CS; CD73.4-IgG2.3
For B1, the “UV % Peak1 <12.9 min (complexes larger than 4:4 hCD73-his:mAb)” value [1] was 37%.

B2: CD73.4-IgG2-C219S-IgG1.1f (antibody)
heavy: QVQLVESGGGVVQPGRSLRLSCAASGFTFSNYGMHWVRQAPGKGLEWVAVILYDGSNKYYPDSVKGRFTISRDNSKNTLYLQMNSLRAEDTAVYYCARGGSSWYPDSFDIWGQGTMVTVSSASTKGPSVFPLAPCSRSTSESTAALGCLVKDYFPEPVTVSWNSGALTSGVHTFPAVLQSSGLYSLSSVVTVPSSNFGTQTYTCNVDHKPSNTKVDKTVERKSCVECPPCPAPPVAGPSVFLFPPKPKDTLMISRTPEVTCVVVDVSHEDPEVKFNWYVDGVEVHNAKTKPREEQYNSTYRVVSVLTVLHQDWLNGKEYKCKVSNKALPSSIEKTISKAKGQPREPQVYTLPPSREEMTKNQVSLTCLVKGFYPSDIAVEWESNGQPENNYKTTPPVLDSDGSFFLYSKLTVDKSRWQQGNVFSCSVMHEALHNHYTQKSLSLSPG
light: not shown
modifications: 94% of the N-terminal glutamine was pyro-Q; 97% of the heavy chains lacked the C-terminal lysine
notes: also called CD73.4-IgG2CS-IgG1.1f
In the case of B2, the EC50 [2] is reported as 0.5 nM and 0.3 nM to 0.67 nM (2×) and the binding result (rat CD73) is reported as “no binding”.
